From the supplement of paper PMC9233669
This sample holds only a part of the variants without activity.

Key:
[1] = tested on: biotinyl-Phe-oxazolone; assay: self-aminoacylation, catalytic enhancement (BFO) (fold over background); higher = more active; k-Seq, kA / k0A0; sequences stand for … in GGGAAUGGAUCCACAUCUACGAAUUC…UUCACUGCAGACUUGACGAAGCUG
Procedure, shortened: (§1)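 Working in 50 μL HEPES/NaCl/KCl/MgCl2/CaCl2 buffer with 5% acetonitrile at pH 6.9–7.0, mutagenized RNA pools (0.43 μM; 21-nt variable region) were reacted with 2–1250 μM of each biotinyl-aminoacyl-oxazolone for 90 minutes at room temperature. Streptavidin capture followed, with quantification by triplicate qPCR and Illumina sequencing. Catalytic enhancement is reported as median kA over the uncatalyzed rate, the low-activity peak of a bimodal Gaussian fit to the data.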

[2] = tested on: biotinyl-Ile-oxazolone; assay: self-aminoacylation, catalytic enhancement (BIO) (fold over background); higher = more active; k-Seq, kA / k0A0; sequences stand for … in GGGAAUGGAUCCACAUCUACGAAUUC…UUCACUGCAGACUUGACGAAGCUG
Procedure, shortened: as §1

[3] = tested on: biotinyl-Met-oxazolone; assay: self-aminoacylation, catalytic enhancement (BMO) (fold over background); higher = more active; k-Seq, kA / k0A0; sequences stand for … in GGGAAUGGAUCCACAUCUACGAAUUC…UUCACUGCAGACUUGACGAAGCUG
Procedure, shortened: as §1

[4] = tested on: biotinyl-Val-oxazolone; assay: self-aminoacylation, catalytic enhancement (BVO) (fold over background); higher = more active; k-Seq, kA / k0A0; sequences stand for … in GGGAAUGGAUCCACAUCUACGAAUUC…UUCACUGCAGACUUGACGAAGCUG
Procedure, shortened: as §1

[5] = tested on: biotinyl-Leu-oxazolone; assay: self-aminoacylation, catalytic enhancement (BLO) (fold over background); higher = more active; k-Seq, kA / k0A0; sequences stand for … in GGGAAUGGAUCCACAUCUACGAAUUC…UUCACUGCAGACUUGACGAAGCUG
Procedure, shortened: as §1

[6] = tested on: biotinyl-Trp-oxazolone; assay: self-aminoacylation, catalytic enhancement (BWO) (fold over background); higher = more active; k-Seq, kA / k0A0; sequences stand for … in GGGAAUGGAUCCACAUCUACGAAUUC…UUCACUGCAGACUUGACGAAGCUG
Procedure, shortened: as §1

Sequence | self-aminoacylation [1] | self-aminoacylation [2] | self-aminoacylation [3] | self-aminoacylation [4] | self-aminoacylation [5] | self-aminoacylation [6]
UUACUUCAAAGAAUCGGUCUG [Fam1A.1 aminoacylation ribozyme variant] | 2.71 | 1.34 | 1.24 | 1.08 | 1.57 | 2.03
UUACUUGAAACAAUCGGUCUG [Fam1A.1 aminoacylation ribozyme variant] | 1.52 | 1.15 | 1.32 | 1.03 | 1.11 | 0.889
UUCCUUCAAACAAUCGGUCUG [Fam1A.1 aminoacylation ribozyme variant] | 5.13 | 0.784 | 0.806 | 0.647 | 0.937 | 4.06
UUGUUUGCUAAUAGUCGCAAG [Fam3.1 aminoacylation ribozyme variant] | 9.39 | 1.41 | 1.33 | 1.42 | 1.24 | 3.52
UUUACCCUGAUCAUCGAGUGA [Fam2.1 aminoacylation ribozyme variant] | 23.3 | 3.92 | 8.08 | 4.05 | 7.11 | 9.79
UUUACCCUGCUCAUCGAGUGA [Fam2.1 aminoacylation ribozyme variant] | 8.11 | 1.28 | 2.03 | 1.54 | 2.15 | 3.13
UUUACCCUGGUCAGCGAGUGA [Fam2.1 aminoacylation ribozyme variant] | 16.3 | 3.46 | 5.62 | 2.96 | 5.43 | 7.06
UUUACCCUGGUCAUAGAGUGA [Fam2.1 aminoacylation ribozyme variant] | 27.7 | 2.89 | 5.18 | 3.07 | 5.87 | 7.54
UUUACCCUGGUCAUCGAGUAA [Fam2.1 aminoacylation ribozyme variant] | 30.5 | 4.45 | 13.9 | 5.3 | 11.7 | 11.8
UUUACCCUGGUCAUCGAGUGA [Fam2.1 aminoacylation ribozyme variant] | 428 | 24.6 | 68.9 | 27 | 60.9 | 71.3
UUUACCCUGGUCAUCGGGUGA [Fam2.1 aminoacylation ribozyme variant] | 221 | 15.2 | 37.3 | 16.7 | 37.2 | 40.3
UUUACCCUGGUGAUCGAGUGA [Fam2.1 aminoacylation ribozyme variant] | 28.6 | 3.39 | 6.47 | 3.51 | 6.55 | 7.87
UUUAGCCUGGUCAUCGAGUGA [Fam2.1 aminoacylation ribozyme variant] | 21.9 | 4.42 | 5.59 | 4.28 | 5.82 | 7
UUUAUCCUGGUCAUCGAGUGA [Fam2.1 aminoacylation ribozyme variant] | 10.2 | 5.25 | 8.6 | 4.7 | 9.68 | 11.3
UUUCAACUAGGUCAUCGGGUG [Fam2.2 aminoacylation ribozyme variant] | 35.7 | 3.58 | 5.1 | 3.67 | 5.6 | 5.22
UUUCACCUAAGUCAUCGGGUG [Fam2.2 aminoacylation ribozyme variant] | 51.6 | 5.08 | 7.38 | 5.74 | 9.35 | 8.11
UUUCACCUAGGUCAGCGGGUG [Fam2.2 aminoacylation ribozyme variant] | 24.2 | 3.75 | 4.92 | 3.92 | 5.53 | 5.12
UUUCACCUAGGUCAUAGGGUG [Fam2.2 aminoacylation ribozyme variant] | 1.69 | 1.41 | 1.28 | 1.3 | 1.38 | 1.23
UUUCACCUAGGUCAUCGCGUG [Fam2.2 aminoacylation ribozyme variant] | 84 | 6.66 | 9.16 | 6.67 | 11.4 | 9.42
UUUCACCUAGGUCAUCGGAUG [Fam2.2 aminoacylation ribozyme variant] | 0.842 | 1.1 | 0.898 | 1.36 | 0.998 | 1.12
UUUCACCUAGGUCAUGGGGUG [Fam2.2 aminoacylation ribozyme variant] | 29.1 | 3.19 | 3.8 | 2.96 | 4.07 | 4.25
UUUCACCUAUGUCAUCGGGUG [Fam2.2 aminoacylation ribozyme variant] | 31.4 | 3.35 | 4.6 | 3.56 | 5.1 | 5.28
